Biological target: T1, Cy3-conjugated IκBα (UniProt P25963 1-317, limits assumed, Cy3 label (monofunctional reactive dye; site not stated))
T1 construct: Used in solution at 0.1 ug/ml; also called Cy3-IκBα
T1 sequence (looked up): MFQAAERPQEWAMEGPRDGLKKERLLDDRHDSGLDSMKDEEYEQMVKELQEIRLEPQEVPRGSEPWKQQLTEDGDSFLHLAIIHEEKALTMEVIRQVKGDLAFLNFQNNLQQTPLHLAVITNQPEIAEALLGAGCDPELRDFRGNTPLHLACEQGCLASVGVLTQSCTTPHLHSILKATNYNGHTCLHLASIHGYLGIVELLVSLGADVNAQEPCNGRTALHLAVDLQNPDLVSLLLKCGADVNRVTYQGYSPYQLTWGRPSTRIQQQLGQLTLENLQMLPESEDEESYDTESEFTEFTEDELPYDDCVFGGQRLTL
Assay: protein microarray on aldehyde glass slide, fluorescent probe in solution (FIG. 1B)

binding result	Binder
no binding (tested: 0.1 µg/ml)	Protein G (other, UniProt P19909 303-497, looked up, Spotted on aldehyde (SMA) glass slides at 100 ug/ml; The commercial product may be a truncated recombinant form) TYKLILNGKTLKGETTTEAVDAATAEKVFKQYANDNGVDGEWTYDDATKTFTVTEKPEVIDASELTPAVTTYKLVINGKTLKGETTTEAVDAATAEKVFKQYANDNGVDGEWTYDDATKTFTVTEKPEVIDASELTPAVTTYKLVINGKTLKGETTTKAVDAETAEKAFKQYANDNGVDGVWTYDDATKTFTVTE
no binding (tested: 0.1 µg/ml)	GST-FRB (other, domain: FRB domain of FRAP; Produced recombinantly in E. coli; The text calls the spotted protein both 'GST-FRB' and 'FRB'; also called FRB domain of FRAP; not shown: GST (glutathione S-transferase) fusion partner) ELIRVAILWHEMWHEGLEEASRLYFGERNVKGMFEVLEPLHAMMERGPQTLKETSFNQAYGRDLMEAQEWCRKYMKSGNVKDLTQAWDLYYHVFRRISKQ

From US20020102617A1 (published 2002)
